Experimental data from patent US20070036810A1, “Cyclic amp response element activator proteins and uses related thereto” (priority 2003, published 2007).
“Also recorded” adds a separate entry of the source.

System: pCRE-Luc reporter (cyclic AMP response element)
Assay: pCRE-Luc reporter assay of CREAP1 deletion fragments in Hela cells
Format: cell-based
Settings: for Activity: Flag-CREAP1 deletion constructs co-transfected with pCRE-Luc in Hela cells, Dual-Glo Luciferase 40 hrs after transfection
Description: CREAP1 protein amino acids 1-170, 1-356, […], 1-580 and 170-650 are inserted into pFlag-CMV4 expression vector (Sigma, St. Louis, Mo.) by utilizing PCR strategy familiar to one of skill in the art. 10^4 Hela cells are split into each well of 96 well tissue culture plates. Cells are transfected 16 hours later with 100 ng of pCRE-Luc reporter construct, 30 ng of Renilla luciferase control plasmid together with 100 ng of pCMVSPORT6, pCMVSPORT-CREAP1 and different Flag-CREAP1 deletion fusion constructs respectively. Transfection is done with Fugene6 reagent (Roche Applied Biosciences) following the manufacturer's instructions. A Dual-Glo Luciferase assay (Promega) is conducted 40 hrs after transfection. Firefly luciferase counts are normalized to Renilla luciferase and plotted.
To dissect the functional domains within the CREAP1 molecule, CREAP1 protein fragments of amino acids 1-170, 1-356, 1-494, 1-580 and 170-650 were subcloned into pFlag-CMV4 vector by utilizing PCR based strategy and tested for function in a Dual Glo Luciferase assay as described above.

B1: K3: CREAP1 fragment, amino acids 1-494, SEQ ID NO 34, Flag fusion (protein)
chain: MATSNNPRKFSEKIALHNQKQAEETAAFEEVMKDLSLTRAARLQLQKSQYLQLGPSRGQYYGGSLPNVNQIGSGTMDLPFQPSGFLGEALAAAPVSLTPFQSSGLDTSRTTRHHGLVDRVYRERGRLGSPHRRPLSVDKHGRQADSCPYGTMYLSPPADTSWRRTNSDSALHQSTMTPTQPESFSSGSQDVHQKRVLLLTVPGMEETTSEADKNLSKQAWDTKKTGSRPKSCEVPGINIFPSADQENTTALIPATHNTGGSLPDLTNIHFPSPLPTPLDPEEPTFPALSSSSSTGNLAANLTHLGIGGAGQGMSTPGSSPQHRPAGVSPLSLSTEARRQQASPTLSPLSPITQAVAMDALSLEQQLPYAFFTQAGSQQPPPQPQPPPPPPPASQQPPPPPPPQAPVRLPPGGPLLPSASLTRGPQPPPLAVTVPSSLPQSPPENPGQPSMGIDIASAPALQQYRTSAGSPANQSPTSPVSNQGFSPGSSPQHTS
modifications: Flag tag; human
With B1 the Activity was “Partially Active”.

B2: K5: CREAP1 fragment, amino acids 170-650, SEQ ID NO 36, Flag fusion (protein)
chain: ALHQSTMTPTQPESFSSGSQDVHQKRVLLLTVPGMEETTSEADKNLSKQAWDTKKTGSRPKSCEVPGINIFPSADQENTTALIPATHNTGGSLPDLTNIHFPSPLPTPLDPEEPTFPALSSSSSTGNLAANLTHLGIGGAGQGMSTPGSSPQHRPAGVSPLSLSTEARRQQASPTLSPLSPITQAVAMDALSLEQQLPYAFFTQAGSQQPPPQPQPPPPPPPASQQPPPPPPPQAPVRLPPGGPLLPSASLTRGPQPPPLAVTVPSSLPQSPPENPGQPSMGIDIASAPALQQYRTSAGSPANQSPTSPVSNQGFSPGSSPQHTSTLGSVFGDAYYEQQMAARQANALSHQLEQFNMMENAISSSSLYSPGSTLNYSQAAMMGLTGSHGSLPDSQQLGYASHSGIPNIILTVTGESPPSLSKELTSSLAGVGDVSFDSDSQFPLDELKIDPLTLDGLHMLNDPDMVLADPATEDTFRMDRL
modifications: Flag tag; human
With B2 the Activity was “lacked almost all stimulating activity” and the Activity (listed as KS) was “Inactive”.

B3: K2: CREAP1 fragment, amino acids 1-356, SEQ ID NO 33, Flag fusion (protein)
chain: MATSNNPRKFSEKIALHNQKQAEETAAFEEVMKDLSLTRAARLQLQKSQYLQLGPSRGQYYGGSLPNVNQIGSGTMDLPFQPSGFLGEALAAAPVSLTPFQSSGLDTSRTTRHHGLVDRVYRERGRLGSPHRRPLSVDKHGRQADSCPYGTMYLSPPADTSWRRTNSDSALHQSTMTPTQPESFSSGSQDVHQKRVLLLTVPGMEETTSEADKNLSKQAWDTKKTGSRPKSCEVPGINIFPSADQENTTALIPATHNTGGSLPDLTNIHFPSPLPTPLDPEEPTFPALSSSSSTGNLAANLTHLGIGGAGQGMSTPGSSPQHRPAGVSPLSLSTEARRQQASPTLSPLSPITQAVA
modifications: Flag tag; human
For B3, the Activity was “Inactive” and the “reduction of functional activity of CREAP1” value (K2 compared with K4 (removal of amino acids 356-580)) was 10 fold.

B4: K4: CREAP1 fragment, amino acids 1-580, SEQ ID NO 35, Flag fusion (protein)
chain: MATSNNPRKFSEKIALHNQKQAEETAAFEEVMKDLSLTRAARLQLQKSQYLQLGPSRGQYYGGSLPNVNQIGSGTMDLPFQPSGFLGEALAAAPVSLTPFQSSGLDTSRTTRHHGLVDRVYRERGRLGSPHRRPLSVDKHGRQADSCPYGTMYLSPPADTSWRRTNSDSALHQSTMTPTQPESFSSGSQDVHQKRVLLLTVPGMEETTSEADKNLSKQAWDTKKTGSRPKSCEVPGINIFPSADQENTTALIPATHNTGGSLPDLTNIHFPSPLPTPLDPEEPTFPALSSSSSTGNLAANLTHLGIGGAGQGMSTPGSSPQHRPAGVSPLSLSTEARRQQASPTLSPLSPITQAVAMDALSLEQQLPYAFFTQAGSQQPPPQPQPPPPPPPASQQPPPPPPPQAPVRLPPGGPLLPSASLTRGPQPPPLAVTVPSSLPQSPPENPGQPSMGIDIASAPALQQYRTSAGSPANQSPTSPVSNQGFSPGSSPQHTSTLGSVFGDAYYEQQMAARQANALSHQLEQFNMMENAISSSSLYSPGSTLNYSQAAMMGLTGSHGSLPDSQQLGYASHSGIPNIILT
modifications: Flag tag; human
With B4 the Activity was “retains almost all wild type activity; also recorded: Fully active”.
